The target of experiment [1] is mTor, endogenous protein of murine BM cells (mouse, UniProt Q9JLN9 1-2549). The experiment can be described thus: co-immunoprecipitation from BM cell lysates, western blot (FIG. 1E). On the procedure:
(§1) Rictor interaction required the C-terminal portion of SAKT that encompass the cytoplasmic region.
(§2) Protein Analyses. For immunoblotting, cells were lysed in RIPA buffer (Cell Signaling Technology) supplemented with HALT™ protease and phosphatase inhibitor cocktails (Thermo Scientific). Western blot analysis was carried out according to standard methods (8). Equal amounts of total protein from lysates were subjected to SDS-PAGE, transferred to PVDF membrane (Invitrogen), and membranes were probed by overnight incubation with appropriate primary antibodies. Bound antibodies were visualized with HRP-conjugated secondary antibodies and ECL detection reagent (GE Healthcare) and quantification of protein bands (Multigauge V3.0, Fujifilm). For standard immunoprecipitation experiments, proteins were extracted by incubation on ice in IP Lysis Buffer and all protein extracts were pre-cleared with Protein-A/G agarose (Santa Cruz Biotechnology) and incubated with Protein A/G agarose bound with antibodies against FLAG M2 (Sigma), Rictor (#9476, Cell Signaling Technology), and SAKT (Santa Cruz Biotechnology) or control IgG from mouse, and rabbit at 4° C. Immunoprecipitates were washed four times with lysis buffer and boiled for 10 minutes in 1× LDS sample buffer (Invitrogen). The eluted proteins were immunoblotted with the antibodies indicated above. […]

The target in experiment [2] is Raptor, endogenous protein of murine BM cells (mouse, UniProt Q8K4Q0 1-1335). The experiment is described as above. How it is done:
as §1, §2

Experiment [3] has as its target Raptor, endogenous protein of 293T cells (UniProt Q8N122 1-1335). The experiment can be described thus: co-immunoprecipitation from 293T cell lysates, western blot (FIG. 1E). How it is done:
as §1, §2

The target of experiment [4] is mTor, endogenous protein of 293T cells (human, UniProt P42345 1-2549). The experiment is described as above. How it is done: as §1, §2

Raptor, endogenous protein of 293T cells, sequence (Q8N122 whole entry): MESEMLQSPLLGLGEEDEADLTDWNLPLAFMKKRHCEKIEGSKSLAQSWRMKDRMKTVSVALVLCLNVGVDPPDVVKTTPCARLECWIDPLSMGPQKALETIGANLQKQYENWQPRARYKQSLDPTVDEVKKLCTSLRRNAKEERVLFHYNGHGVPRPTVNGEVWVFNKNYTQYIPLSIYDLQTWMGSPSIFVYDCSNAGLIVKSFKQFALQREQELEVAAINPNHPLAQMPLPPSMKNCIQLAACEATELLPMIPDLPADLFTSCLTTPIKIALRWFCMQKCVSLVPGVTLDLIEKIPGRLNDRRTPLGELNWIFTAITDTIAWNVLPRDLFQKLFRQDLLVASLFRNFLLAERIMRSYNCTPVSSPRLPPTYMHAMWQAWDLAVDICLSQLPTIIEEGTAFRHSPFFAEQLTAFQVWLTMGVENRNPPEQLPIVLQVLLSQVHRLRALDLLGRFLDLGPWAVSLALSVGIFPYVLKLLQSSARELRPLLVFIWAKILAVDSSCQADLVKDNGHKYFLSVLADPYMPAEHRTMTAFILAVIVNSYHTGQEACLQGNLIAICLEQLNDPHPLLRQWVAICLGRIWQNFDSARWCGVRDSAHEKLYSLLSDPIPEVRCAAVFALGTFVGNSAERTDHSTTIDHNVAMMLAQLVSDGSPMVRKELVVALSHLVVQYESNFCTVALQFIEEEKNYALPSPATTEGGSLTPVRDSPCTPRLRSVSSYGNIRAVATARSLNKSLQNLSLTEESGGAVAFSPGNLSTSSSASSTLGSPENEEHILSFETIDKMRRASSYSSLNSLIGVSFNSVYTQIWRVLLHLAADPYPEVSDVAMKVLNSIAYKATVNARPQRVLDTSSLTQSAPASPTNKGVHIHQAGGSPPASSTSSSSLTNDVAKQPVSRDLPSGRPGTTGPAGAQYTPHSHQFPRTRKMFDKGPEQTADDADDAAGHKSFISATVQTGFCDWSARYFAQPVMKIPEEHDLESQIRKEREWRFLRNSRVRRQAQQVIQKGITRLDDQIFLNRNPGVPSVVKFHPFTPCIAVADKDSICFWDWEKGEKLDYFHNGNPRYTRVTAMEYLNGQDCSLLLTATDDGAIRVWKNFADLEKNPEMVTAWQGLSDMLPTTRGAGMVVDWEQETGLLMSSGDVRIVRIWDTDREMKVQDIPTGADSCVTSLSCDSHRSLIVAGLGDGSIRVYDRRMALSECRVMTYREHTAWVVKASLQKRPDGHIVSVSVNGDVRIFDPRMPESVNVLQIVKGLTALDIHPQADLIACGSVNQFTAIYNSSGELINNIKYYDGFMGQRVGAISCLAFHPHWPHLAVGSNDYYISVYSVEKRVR
Raptor, endogenous protein of murine BM cells, sequence (Q8K4Q0 whole entry): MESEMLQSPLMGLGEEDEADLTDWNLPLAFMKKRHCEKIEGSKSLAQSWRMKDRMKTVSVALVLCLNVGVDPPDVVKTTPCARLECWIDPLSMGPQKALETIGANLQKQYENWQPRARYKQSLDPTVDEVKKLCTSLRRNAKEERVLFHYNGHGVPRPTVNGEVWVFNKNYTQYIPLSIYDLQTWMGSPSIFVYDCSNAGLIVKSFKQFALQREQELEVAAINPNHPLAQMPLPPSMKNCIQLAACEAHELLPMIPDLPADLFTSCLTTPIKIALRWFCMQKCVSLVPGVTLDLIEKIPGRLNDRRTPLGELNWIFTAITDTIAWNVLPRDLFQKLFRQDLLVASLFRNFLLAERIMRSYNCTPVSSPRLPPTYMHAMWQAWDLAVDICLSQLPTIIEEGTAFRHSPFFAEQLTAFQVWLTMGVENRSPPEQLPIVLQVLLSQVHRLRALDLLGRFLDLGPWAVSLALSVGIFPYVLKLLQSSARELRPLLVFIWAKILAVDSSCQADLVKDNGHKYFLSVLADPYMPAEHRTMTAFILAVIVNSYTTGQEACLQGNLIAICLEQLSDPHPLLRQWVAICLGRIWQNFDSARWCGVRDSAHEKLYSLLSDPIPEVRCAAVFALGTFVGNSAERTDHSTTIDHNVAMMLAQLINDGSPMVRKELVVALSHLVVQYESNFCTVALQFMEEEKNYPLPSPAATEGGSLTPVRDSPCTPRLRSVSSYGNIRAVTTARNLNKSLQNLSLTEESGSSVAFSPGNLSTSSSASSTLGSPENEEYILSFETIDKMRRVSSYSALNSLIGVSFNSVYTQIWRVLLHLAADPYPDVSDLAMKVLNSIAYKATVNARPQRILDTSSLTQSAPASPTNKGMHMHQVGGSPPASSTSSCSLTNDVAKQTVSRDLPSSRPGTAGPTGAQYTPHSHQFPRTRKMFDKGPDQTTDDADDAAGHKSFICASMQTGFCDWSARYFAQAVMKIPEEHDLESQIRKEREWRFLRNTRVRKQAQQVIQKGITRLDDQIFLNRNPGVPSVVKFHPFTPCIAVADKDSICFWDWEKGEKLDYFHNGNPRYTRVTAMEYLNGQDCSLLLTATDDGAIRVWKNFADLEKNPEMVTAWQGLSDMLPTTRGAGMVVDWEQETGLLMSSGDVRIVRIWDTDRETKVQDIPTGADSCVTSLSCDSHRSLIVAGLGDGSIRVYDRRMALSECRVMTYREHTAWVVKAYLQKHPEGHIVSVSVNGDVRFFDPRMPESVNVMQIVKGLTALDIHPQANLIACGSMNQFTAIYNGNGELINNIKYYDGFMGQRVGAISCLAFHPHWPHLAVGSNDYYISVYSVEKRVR

B1: Suppressor of AKT (SAKT), endogenous protein of murine bone marrow (BM) cells (receptor, mouse, UniProt Q8BT18 48-775, looked up)
chain: FPKVERRETAQEYAEKEQSQKMNTDDQENISFAPKYMLQQMSSEAPMVLSEGPSEIPLIKVFSVNKESHLPGAGLLHPTSPGVYSSSEPVVSASEQEPGPSLLERMSSEHSLSKVMLTVAVSSPASLNPDQEGPYNSLSTQPIVAAVTDVTHGSLDYLDNQLFAAKSQEAVSLGNSPSSSINTKEPEIIKADAAMGTTVVPGVDSTGDMEPDRERPSEMAADDGQSTTTKYLVTIPNNFLTTEPTAGSILGDAKVTVSVSTAGPVSSIFNEEWDDTKFESISRGRPPEPGDNAETQMRTKPPHGTYESFEGTEESPSSTAVLKVAPGHLGGEPALGTALVTALGDERSPVLTHQISFTPMSLAEDPEVSTMKLFPSAGGFRASTQGDRTQLSSETAFSTSQYESVPQQEAGNVLKDITQERKMATQAMNTTSPVVTQEHMATIEVPRGSGEPEEGMPSLSPVPAEVADAELSRRGESLATPASTTVVPLSLKLTSSMEDLMDTITGPSEEFIPVLGSPMAPPAMTVEAPTISSALPSEGRTSPSISRPNTAASYGLEQLESEEVEDDEDEEDEEDEEEEEEDEEDEEDEEDKETDSLYKDFDGDTEPPGFTLPGITSQEPDIRSGSMDLLEVATYQVPETIEWEQQNQGLVRSWMEKLKDKAGYMSGMLVPVGVGIAGALFILGALYSIKVMNRRRRNGFKRHKRKQREFNSMQDRVMLLADSSEDEF
notes: Endogenous protein immunoprecipitated from murine BM cell lysates; also called C14ORF37
Consider B1, for which the binding result in experiment [1] and in experiment [2] was “no binding” in each case.

B2: Suppressor of AKT (SAKT), endogenous protein of 293T cells (receptor, UniProt Q86TY3 28-774, looked up)
chain: FPKIERRREIAHVHAEKGQSDKMNTDDLENSSVTSKQTPQLVVSEDPMMMSAVPSATSLNKAFSINKETQPGQAGLMQTERPGVSTPTESGVPSAEEVFGSSQPERISPESGLAKAMLTIAITATPSLTVDEKEELLTSTNFQPIVEEITETTKGFLKYMDNQSFATESQEGVGLGHSPSSYVNTKEMLTTNPKTEKFEADTDHRTTSFPGAESTAGSEPGSLTPDKEKPSQMTADNTQAAATKQPLETSEYTLSVEPETDSLLGAPEVTVSVSTAVPAASALSDEWDDTKLESVSRIRTPKLGDNEETQVRTEMSQTAQVSHEGMEGGQPWTEAAQVALGLPEGETHTGTALLIAHGNERSPAFTDQSSFTPTSLMEDMKVSIVNLLQSTGDFTESTKENDALFFLETTVSVSVYESEADQLLGNTMKDIITQEMTTAVQEPDATLSMVTQEQVATLELIRDSGKTEEEKEDPSPVSDVPGVTQLSRRWEPLATTISTTVVPLSFEVTPTVEEQMDTVTGPNEEFTPVLGSPVTPPGIMVGEPSISPALPALEASSERRTVVPSITRVNTAASYGLDQLESEEGQEDEDEEDEEDEDEEEEDEEEDEEDKDADSLDEGLDGDTELPGFTLPGITSQEPGLEEGNMDLLEGATYQVPDALEWEQQNQGLVRSWMEKLKDKAGYMSGMLVPVGVGIAGALFILGALYSIKVMNRRRRNGFKRHKRKQREFNSMQDRVMLLADSSEDEF
notes: also called C14ORF37
In the case of B2, the binding result in experiment [3] and in experiment [4] was “no binding” in each case.
